The target in this assay is CTLA4 (cytotoxic T-lymphocyte-associated protein 4) (human) (UniProt P16410). Description: cell-based or functional assay.
Chain of CTLA4 (cytotoxic T-lymphocyte-associated protein 4) (human) (P16410 36-223): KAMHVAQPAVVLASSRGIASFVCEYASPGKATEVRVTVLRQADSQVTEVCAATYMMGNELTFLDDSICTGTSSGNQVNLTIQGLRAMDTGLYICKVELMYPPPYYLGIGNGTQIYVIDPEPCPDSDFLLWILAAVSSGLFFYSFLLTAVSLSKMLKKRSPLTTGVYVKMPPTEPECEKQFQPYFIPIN

Turning to XmAb®20717 (bispecific antibody), the IL-2 secretion (ELISA of culture supernatants) from SEB-stimulated human PBMC treated 24 hours, versus anti-RSV isotype-control bivalent antibody XENP15074 is 4.1 fold; the IL-2 secretion (ELISA) from SEB-stimulated human PBMC, versus a mixture of the monovalent component antibodies XENP20111 (anti-PD1 scFv-Fc) and XENP20059 (anti-CTLA4 Fab-Fc) is 1.6 fold; the IL-2 secretion (ELISA) from SEB-stimulated human PBMC, versus the bivalent anti-PD1 antibody XENP16432 came to 1.5 fold.

Values taken from US20230074793A1.
